Measurements as given in the DeepSol protein solubility set.

Assay: soluble on expression in E. coli; label from the status in PepcDB or PDB records

Sequence | soluble on expression in E. coli
GHHHHHHAIAENLYFQSKDVPGFLQQSQSSGPGQPAVWHRLEELYTKKLWHQLTLQVLDFVQDPCFAQGDGLIKLYENFISEFEHRVNPLSLVEIILHVVRQMTDPNVALTFLEKTREKVKSSDEAVILCKTAIGALKLNIGDLQVTKETIEDVEEMLNNLPGVTSVHSRFYDLSSKYYQTIGNHASYYKDALRFLGCVDIKDLPVSEQQERAFTLGLAGLLGEGVFNFGELLMHPVLESLRNTDRQWLIDTLYAFNSGNVERFQTLKTAWGQQPDLAANEAQLLRKIQLLCLMEMTFTRPANHRQLTFEEIAKSAKITVNEVELLVMKALSVGLVKGSIDEVDKRVHMTWVQPRVLDLQQIKGMKDRLEFWCTDVKSMEMLVEHQAHDILT | soluble
MEDLLPTLPSLDHRDALPNALASPVLPAGQSDAQLVRTWLDTKYAAGLGIRASTRAQYALEAHRLLWYAHALGRPLASWQVADANGYLAFLADPPAHAVGDGRVRQDSPAWRPLRGPLSEASRRQTATIVGGLFEWLVGVEALRVNPFQAVPRARSARGPGSQRRFLEAEQLAAVFDAVEARPAPTLWAQLHKARDRLLLALLFHTGLRASEVTALTWPDFERQRGRHGDFWTVRIREAKGGSDQLVPCDNVMAELARFRQLVGLSPEPRATDTMAVVPAMAGGRQRLAPLTDTLALQRRLSRPVRTRQGLYTIVRQVFEAAAVRLEASGYAEGAANLRAASTHWLRHSHATHLLRAGVPVTDVQRTLRHRDINTTRRYTHEALEDVARSIGGKLPAVLEHHHHHH | not soluble
MAKQIKGIAASDGVAIAKAYLLVEPDLSFDNESVTDTDAEVAKFNGALNKSKVELTKIRNNAEKQLGADKAAIFDAHLLVLEDPELIQPIEDKIKNESVNAAQALTDVSNQFITIFESMDNEYMAERAADIRDVSKRVLAHILGVELPNPSIVDESVVIIGNDLTPSDTAQLNKEYVQGFVTNIGGRTSHSAIMSRSLEIPAVVGTKSITEEVEAGDTIVVDGMTGDVLINPSDEVIAEYQEKRENFFKDKQELQKLRDAESVTADGHHVELAANIGTPNDLPGVIENGAEGIGLYRTEFLYMGRDQMPTEEEQFEAYKAVLEAMKGKRVVVRTLDIGGDKELPYLDLPEEMNPFLGYRAIRLCLDQPEIFRPQLRALLRASVFGKLNIMFPMVATIQEFRDAKALLEEERANLKNEGYEVADDIELGIMVEIPSTAALADIFAKEVDFFSIGTNDLIQYTMAADRMSERVSYLYQPYNPAILRLVKQVIEASHAEGKWTGMCGEMAGDQTAIPLLLGLGLDEFSMSATSILKARRLIRSLNESEMKELSERAVQCATSEEVVDLVEEYTKNA | soluble
MSLTRKKEDPGHSGRADRAARLSKASTHHAQHRQQPQRTRHERPRHAGHVAGKLYQLEVSEALISSVTDAVLDNVHAWQSRPLAAQRAENQRLIPD | soluble
MAHHHHHHMGGCVVSLMECKARSNEVPWELSEDVKSYGPLSVAVAGTQTPNSSAVYVNGKQSTLAAQQECGKQFYYGPNQPQRFAKLCQENLDSVALAYRRIEKMEKEQVAGASRPMDVAYFSEQCNLTYRELWHAVTGFSRGLAELGLEKRVNVTIYEETRWEWLASIYGIWMQDMVAATVYANLGEGALFHALRETECKAILCNGKSVPNLLRGVGSGAFPACTLIYLDNLPVAGCAELHGCRVVSWKDVVALGHGAGAHHGAAPPEDNESVALIMYTSGTTGDPKGVMHTHGSIVAGILTMDDWLYSVIKHRPDDVYLSYLPMAHIMEFGVVNILLARRAHVAFGTPRTLTDATARPHGDFTHFRPTLLIGVPRIFDTLKKAVEAKLPPVGTLKRQVFDHAYQSRLAALKEGKDTPFWNEKVFSQPRAALGGRVRAFLSGGGPLSETTQEFVNVVFGCIVNGWGLTETVCIGAIQRLGDLTPSAVGQVLCSEQLKLRDIDEYKHTDTPYPRGEICLRGPFLFKGYYKQPELTREVLDEDGWFHTGDVGSIDCEGRVSIVGRIKALAKNCLGEYIALEVLEAVYSSHPLVLHNCVCVLVDPCKNYICALVLTDESHVMRFAKANGIEGEYPSLLEKKELLEKAAASMAETARAARRRDFEVVRRVSLIDDEWSPEKGQLTAALKLRRGAIAKQYEKQITCLFAE | not soluble
MVAQKAYVSTPTLIDYLSRSAIKLLDIHSILLKVREEAMGGEPNLLRQIDSTKKQLDEISHALILEYRKRQENERFLKQILLSISDQLFSLNNGFKETGRLFFQEIRMLQSQMQCFYEGKERQYLLSEQESSYSPSKIDEVIKQLQKAREKLIVESPHLFEKEC | not soluble
MHHHHHHAADPPPVHDTDGHELRADANYYVLSANRAHGGGLTMAPGHGRHCPLFVSQDPNGQHDGFPVRITPYGVAPSDKIIRLSTDVRISFRAYTTCLQSTEWHIDSELAAGRRHVITGPVKDPSPSGRENAFRIEKYSGAEVHEYKLMSSGDWCQDLGVFRDLKGGAWFLGATEPYHVVVFKKAPPA | soluble
MGSDKIHHHHHHMLISLEDTNYTLVKEYLEKSVNHHILQRYIDNHNFPIIEKSYHKYLTFESLEEDFTYILKDGIVKQSVLSKYGMEFNLRYVTGLEITSVLNTGYSKDMGEPYNVRIESEKASFYKVRRSAFLKDINEDIELQGYVKDFYHNRLQKSMKKMQCMLTNGRIGAISTQIYDLMTLFGEELPNGQILINFVITNEELGKFCGISTASSVSRILKQLKEKNIIRIDKQHIIITNLDKLKDNIVF | not soluble
MSLEIPKDFFVKDGEPNVKIVVGSEGAAMDVVSAADIAAAIGSLLYTEKEVKVSDVSVVVRKDITYDPDDIPVFNNFYPNKNQVFIVGQDSLKDVEAWWNGSAFSANYTASVWNGGTYSGTYSLELENVANYGKYDLTGELTLKGITLEEIANNEVNFKDIEDFKDMTVKINSAVLNITLAVYNWTKTVKAKDPITGVTTTKVKWTLSNVQPGAGYSISDTISKGVGEGVTLKVFDKEFPIMFVGKAISKNAIVDAADSFVYGTYHGTDFYDQGQEVEFDGYKVEILDIDIQRNEGHHHHHH | not soluble
MRRFLTLTVALGFLSACEVSDPGPVAPLPKVPDSPPMSASAAQSAFASVSARVRPVAVRECQQRTQGANCDFKIQIDPDPKAPVNAYQTVGKNGQPLIIFTRSMIATARNADELAFVMGHEAAHHIRGHLARQNASAIAGAVILGGLVGLAGGGASTIDAATQIGASVGARTYSKEYELEADELGTVITHKAGYNPLVGAHFFSRIPDPGDRFLGSHPPNAARIQTVQRTAGSLGLTQLEHHHHHH | not soluble
MLVLGDAHATTPGRRRALFAAYRAANESVAVQAGDLMYYDLPVQTYFIGGNNEDFDAIDALRNGRVESDDVANATLLNSTAATVDGRRVAGLTGNYAPTQFDKPRAVLRGDRRRHFVRSDVEAVMDLDDIDIFVAHEAPNGLPVEEDYDVGCQHIDDILDALQPSLCLVGHHHQHAECDYGDTHVVGLEPAWESYYVVDPDTLAVTRHDTPPALEHHHHHH | not soluble
MKVELQISETYEEEKLIVQAPQETEKVQKVIEFAENLDQREKIKGKIDDQVYLVEIGKIQRFYIENRKVLAETASQTYSIDLRLYQVLKLLPTNFIQISQSEIINIDSISHLKLTPNGLVEIFLKNESFTYSSRRYLKTIKEKLEL | not soluble
SNAMKVKIYTRNGCPYCVWAKQWFEENNIAFDETIIDDYAQRSKFYDEMNQSGKVIFPISTVPQIFIDDEHIGGFTELKANADKILNKK | soluble
MSFLSNSLNRISFNSFSNMHSLLSSKFQEHYNDIYDWNGNIENIYKANTFISIGYKLLYPLGVLEANFDKEKLKKFLFRICSYYNDIPYHTSLHAAQVAHFSKSMLFMLDMNHKISAIDEFCLHISSLCHDTGHPGLNNYFLINSENNLALTYNDNSVLENYHCSLLFKTLKNPNYNIFEHYPYHIFISCKKNIIKAILSTDMKNHFEYISDFRTSKEFIDYDNLSNDQIWQIFCLILKASDIGHSTLEWNKHLEWTLKINEEFYLQGLLEKSLNIQNSFLCDINTMNKLALSQIDFLKHLCIPLFNELNYICKNNDVYTHCIQPIENNIERWESHKNDNQNLGLHEKYKEENLLSKLELIKFE | not soluble
MDDRLFRNAMGKFATGVTVITTELNGAVHGMTANAFMSVSLNPKLVLVSIGEKAKMLEKIQQSKKYAVNILSQDQKVLSMNFAGQLEKPVDVQFEELGGLPVIKDALAQISCQVVNEVQAGDHTLFIGEVTDIKITEQDPLLFFSGKYHQLAQNEKVETSS | soluble
MSLNYLMKEKYIGLHKFELDTPCLVIDYEKLKHNLEIMQQHGFTWGIGIRPHCKTHKCTQIARLQLEYGAIGISAAKLSEAAALVSKRITNVLITSLIVSEAKYSRLFNCLKSAPDLMLVVDDKDNIRMLNKLGKSLNQPVHVLLDIDSGIGRTGINPEAALEYGHFINGMNWLKLKGIQCYAGHLQHIQNYEERKAFSLQVMEMASRIVKSFRDANLPCEILTGTGTGTFDIDVEASEVTEIQPGSYAVMDVEYGSIGSKNNPSSFQLFKNSMTLLTSVISSNRREHATVDAGTKSIYVDPHHKPHIISHPGLVYDWGGFGDEHGKVFSCEGGSHFLQNGDVLEIIVPHCDPTINLYDKFYITENNVVVDIWDIDMRGKSEGHHHHHH | soluble
MGSDKIHHHHHHMTNTIMEQEARTAPQKIAGQLAANADLMQQLGEKLRAFDPRFVMIVGRGSSDHAGVFAKYLFEIEVGVPTFAAAPSVASVYGKTLKLEGGLVIVISQSGRSPDILAQARMAKNAGAFCVALVNDETAPIKDIVDVVVPLRAGEEKAVAATKSYLATLSAILQLASAWTQSESLAAAVSSLPQALQTAVVAEPQLTPESVENVKNLVVLGRGLGYAVSKEIALKLKEVCSIHAEAFSSAEFLHGPVTLVEKKLTIVDVCIGDESYASHIEQIENVSQRGADLVHLNQTSTDIHPRVAPLALLQRFYIDVAAVAIARGIDPDQPAGLKKVTQTL | not soluble
SNAMTQQDFRTKVDNTVFGVRATALIVQNHKLLVTKDKGKYYTIGGAIQVNESTEDAVVREVKEELGVKAQAGQLAFVVENRFEVDGVSYHNIEFHYLVDLLEDAPLTMQEDEKRQPCEWIDLDKLQNIQLVPVFLKTALPDWEGQLRHIHLEE | soluble
GERLSMEDAVKLYESDEVEKMGAAANQIMLKWHPEPITTFVIGRNVNYTNFCDTYCRFCAFYRAPGHKEGYVLDDEVILKKIQETIDVGGTEILMQGGTNPDLTIDYYTDLLRNIKERFPNIWMHSFSPAEVWKIAEVSSMSVEEVLRELHEAGLDSMPGGGAEILTEETRLRVSRLKITWEQWINAMKATKKVGMHGTATMVIGFGESFEERALHLQRVRDAQDETECFTAFISWLFQPENTGMYKTKKLTPRDYLKNVAISRLFLDNIPNFQSSWVTMGPEVGKLSLQYGCNDFGSTMIEENVVSAAGTTHKVNTNKILQLIREAGKIPAQR | not soluble
MKPNLLPMNLQMFAEEDGGTNFTFDDFKAFVESNEEAQKFVQSQSQSAADKQLEAWKQNNLEKIKETTIKEYEESKKNKTPEQIKLEELQAEFEAEKALRVTSDNKAFVAEKIAGLDWDGDLKDSISQFMLNNLVSSDTEFTKKAVEGFTELLEAINDKHAEAIKNVEMTKAFGNKSQQTNMGTGNQTKSFENPEVALGQKLQAFID | not soluble
MSLKLGIIGSGKIVHDFLTAIDQINNLDVVAISSTKRSENIAQELAKKYSINKTYTDNDELMSDPDVDTVYVAVPNFLHYQVAKAALEHGKNVICEKPFVDSTNEAKKLKQLADEKNLIIVEAITNIYLENFKRIQREIENIAPIHIVSLNYTQYSSRYDDFLKGKIAPVFDPAKDGGTLMDLNIYNIHLVSALFGLPDKVKYYANMQKGVDTSGILHLSYPDKQAALIAAKDSYVTPRSFIEGEKGSIYIDGSTGELNNFTIEMRDQKPKRYNLNKYSHRMASEFNAFVEMIDNHDKVKADEAFVNTLESMQILTTAKNSEEGHHHHHH | soluble
